The target in this experiment is SARS-CoV-2 RBD-mFc (SARS-CoV-2, reference (Wuhan-Hu-1) by …, UniProt P0DTC2). The experiment is described as follows: flow cytometry on cells.

Results on one molecule are retold here after publication doi:10.1101/2021.02.12.430940 (bioRxiv, 2021).

B1: mAb-82 (antibody, V domains shown)
VH: QVQLVQSGAEVKKPGSSVKVSCKASGGTFSSYAISWVRQAPGQGLEWMGGIIPIFGTANYAQKFQGRVTITADESTSTAYMELSSLRSEDTAVYYCARGNDDSSGYYSHYYYGMDVWGQGTTVTVSS
VL: QTVVTQEPSFSVSPGGTVTLTCGLSSGSVSTSYYPSWYQQTPGQAPRTLIYSTNTRSSGVPDRFSGSILGNKAALTITGAQADDESDYYCVLYMGSGAVFGGGTQLTVL
B1: the binding result is “binds”.
